We go through five molecules from PMC11827629.

The Kd is the concentration at which binding is half-saturated.

Data set [1] has as its target T1, thrombin, N-terminally 2PCA-labeled (Cy5, biotin) (UniProt P00734;P00734 328-363;364-622). Nature of the data set: single-molecule FRET (koff/kon); koff 0.3 +/- 0.1 s-1; kon 1.1 +/- 0.1 e8 M-1 s-1; smFRET: 1x PBS with 2.5 mM PCA, 0.155 U/ul PCD, 1 mM Trolox, 5 nM Cy3-aptamer, 23 +/- 1 C, pH not stated; QCM: PBS, flow 45 +/- 3 ul/min, thrombin 0.06-16.5 nM.
The target in data set [2] is T2, human alpha-thrombin (Homo sapiens, UniProt P00734;P00734 328-363;364-622). Nature of the data set: QCM; linear 1.65-16.5 nM; no significant change below; release 6.3 +/- 0.6% per 5 min at 16.5 nM; smFRET: 1x PBS with 2.5 mM PCA, 0.155 U/ul PCD, 1 mM Trolox, 5 nM Cy3-aptamer, 23 +/- 1 C, pH not stated; QCM: PBS, flow 45 +/- 3 ul/min, thrombin 0.06-16.5 nM.
Data set [3] concerns the target T1, thrombin, N-terminally 2PCA-labeled …. Description: single-molecule FRET (koff/kon); koff 0.7 +/- 0.1 s-1; kon 0.7 +/- 0.1 e8 M-1 s-1; main text gives error 0.8; smFRET: 1x PBS with 2.5 mM PCA, 0.155 U/ul PCD, 1 mM Trolox, 5 nM Cy3-aptamer, 23 +/- 1 C, pH not stated; QCM: PBS, flow 45 +/- 3 ul/min, thrombin 0.06-16.5 nM.
The target is the same in data set [4]. Description: single-molecule FRET (koff/kon); koff 0.1 +/- 0.1 s-1; kon 0.2 +/- 0.1 e8 M-1 s-1; main text gives error 0.7; smFRET: 1x PBS with 2.5 mM PCA, 0.155 U/ul PCD, 1 mM Trolox, 5 nM Cy3-aptamer, 23 +/- 1 C, pH not stated; QCM: PBS, flow 45 +/- 3 ul/min, thrombin 0.06-16.5 nM.
Data set [5] addresses T2, human alpha-thrombin. Nature of the data set: QCM; about twice the sensitivity of RE31; response at 300 pM; release 3.1 +/- 1.05% per 5 min at 16.5 nM; smFRET: 1x PBS with 2.5 mM PCA, 0.155 U/ul PCD, 1 mM Trolox, 5 nM Cy3-aptamer, 23 +/- 1 C, pH not stated; QCM: PBS, flow 45 +/- 3 ul/min, thrombin 0.06-16.5 nM.

As to TTTTTTTGTGACGTAGGTTGGTGTGGTTGGGGCGTCAC (structured_DNA) [RE31 single molecule exp.], the affinity in data set [1], expressed as Kd, was 2.9 nM.

As for TTTTTTTGTGACGTAGGTTGGTGTGGTTGGGGCGTCAC (structured_DNA, 5' amino C6) [RE31 QCM exp.], the binding result in data set [2] is recorded as “binds”.

The molecule TTTTTTTGGTTGGTGTGGTTGG (structured_DNA) [HD1 single molecule exp.] came in with a Kd in data set [3] of 9.2 nM.

In data set [4], TTTTTTTCGCCTAGGTTGGGTAGGGTGGTGGCG (structured_DNA) [NU172 single molecule exp.] came in with a Kd of 3.3 nM.

Turning to TTTTTTTCGCCTAGGTTGGGTAGGGTGGTGGCG (structured_DNA, 5' amino C6) [NU172 QCM exp.], in data set [5], the binding result was “binds”.
